Biological target: T1, Neisserial heparin-binding antigen (NHBA) peptide 20 (Neisseria meningitidis strain 2996, UniProt Q9JPP1 18-427)
T1 construct: NHBA variant p20 (short variant) of N. meningitidis strain 2996, UniProt Q9JPP1; also called NHBA p20; NHBAp20
T1 sequence: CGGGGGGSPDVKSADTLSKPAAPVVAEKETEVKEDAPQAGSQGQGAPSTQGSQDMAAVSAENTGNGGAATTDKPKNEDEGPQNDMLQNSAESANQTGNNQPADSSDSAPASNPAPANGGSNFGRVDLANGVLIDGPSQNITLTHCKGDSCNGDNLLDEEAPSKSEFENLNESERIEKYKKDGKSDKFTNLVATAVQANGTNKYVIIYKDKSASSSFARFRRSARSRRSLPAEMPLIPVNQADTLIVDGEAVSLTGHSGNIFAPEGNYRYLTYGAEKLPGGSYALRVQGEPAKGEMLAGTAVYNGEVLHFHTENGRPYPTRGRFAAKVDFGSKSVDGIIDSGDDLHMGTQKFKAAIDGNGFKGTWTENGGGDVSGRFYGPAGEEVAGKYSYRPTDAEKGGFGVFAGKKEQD
Assay: SPR; Biacore T200, 25 °C; Fab (800-1100 RU) captured by anti-Fab mAbs (Human Fab Capture Kit) on a CM5 chip; NHBA injected, single-cycle kinetics, five injections 6.25-100 nM, 30 µl/min; HBS-EP (10 mM HEPES, 150 mM NaCl, 3 mM EDTA, 0.05% P20, pH 7.4); 1:1 Langmuir model with mass-transfer term; duplicate
Conditions: both partners purified

B1: Fab 12E1 (Fab, V domains shown)
VH: QVQLVQSGAEVKKPGASVKVSCKASGYIFTSHPIHWVRQAPGQRPEWMGWINAGNGNTKYSQKFQDRVNLTRDTSASTVFMELINLRFEDTAIYYCIRETKFDPWGQGTLVTVSS
VL: EIVLTQSPLSLPVTLGQPASISCRSSQDLVYRDGITYLNWFQQRPGQSPRRLIYKVSNRDSGVPDRFSGSGSGTDFTLRISRVEAEDIGVYYCMQGTHWPITFGQGTRLEIKR
notes: heavy chain of Fab 12E1 (human VH, human IgG1 CH1) as left after TEV cleavage; light chain of Fab 12E1; Fab cloned from a human monoclonal antibody of a Bexsero vaccinee; also called anti-NHBA human Fab 12E1; source: Expi293 cells, transient transfection, purified from supernatant (StrepTrap HP, TEV cleavage, Superdex 200); not shown: double Strep-tag II, C-terminal, cleaved
Kd: 6.2 nM
koff: 0.0003 s⁻¹
kon: 49000 M⁻¹ s⁻¹
